Assay [1] has as its target nNOS expressed in transfected HEK293 cells (lysate; also metabolically labelled and purified). In words: competition: nNOS (HEK-293) binding to immobilized GST-PSD95 in the presence of His6-CAPON.
The test system of assay [2] is nNOS/PSD95 interaction. Put plainly: Competition of His6-fusion proteins for nNOS binding to immobilized GST-PSD95. Further details: competition for / block of nNOS-PSD95 interaction: dose or concentration left out as unconfirmed. Particulars: for block of nNOS/PSD95 interaction in vitro: no concentration stated. As to the method: (§1) The C-terminal 100 amino acids were fused to a His6 tag and added to HEK293 lysates transfected with nNOS expression plasmids at the indicated fusion protein concentration. This mixture was added to GST-PSD95 (amino acids 20-364) or GST-PSD93 (116-421), the regions of these proteins previously shown to interact with nNOS (Brenrman et al., 1996).
(FIG. 5B) Quantification of CAPON inhibition of the nNOS/PSD95 interaction. HEK293 cells were transfected with nNOS expression plasmids and then metabolically labeled with [^35 S] methionine. Radiolabeled nNOS was purified and mixed with His6 -CAPON as in (A), above. Bound nNOS was resolved by electrophoresis and counts were determined on a Phospholmager.
Transfections were performed with 10 μg of each plasmid using the calcium phosphate method. Following transfection, cells were sonicated in buffer A [50 mM Tris-HCl (pH 7.7), 100 mM NaCl, 2 mM EDTA, and 1% Triton X-100] and cleared by centrifugation. This cellular lysate was incubated with GST-fusion protein immobilized on glutathione-agarose for one hour at 4° C. and washed extensively in HNTG buffer [20 mM Hepes (pH 7.4), 500 mM NaCl, 10% glycerol, and 0.1% Triton X-100] five times, for ten minutes per wash at room temperature. A GST-CAPON fusion protein consisting of amino acids 379-503 was used for binding assays because it was more soluble when expressed in bacteria than larger CAPON fusion proteins.
For quantitative binding experiments, transfected cells were metabolically labeled overnight with […] [^35 S] methionine and nNOS was purified by NADPH elution of 2', 5' ADP ribose as described previously (Bredt and Snyder, 1990).
Since the nNOS PDZ domain is capable of both PDZ-PDZ interactions and PDZ-C-terminal peptide interactions we wondered whether CAPON and PSD95 can bind simultaneously to nNOS or whether their interactions with nNOS are mutually exclusive. To answer this question we incubated lysates of HEK-293 cells containing nNOS with various concentrations of a His6 -CAPON fusion protein, comprising the last 125 amino acids of CAPON, and then added these lysates to GST-PSD95 immobilized on glutathione agarose resin (FIG. 5A). After extensive washing of the resin, we assayed for nNOS bound to PSD95 by Western blot. […] Half maximal reduction of binding is evident between 5 and 50 nM His6 -CAPON (FIG. 5B). […] As controls, we examined the effects of 5 μM His6 -PIN or […] His6 -FK506 binding protein-12 kD (FKBP). […] These effects of CAPON likely reflect its binding to nNOS rather than to the PDZ domains of either PSD95 or PSD93 because CAPON fails to interact with either PSD93 or PSD95 using (i) a two-hybrid assay (see FIG. 1A) and (ii) in vitro experiments utilizing immobilized GST-PSD95 and purified recombinant CAPON (data not shown).

In assay [3] the target is T1, nNOS (Rattus norvegicus, UniProt P29476). In words: CAPON C-terminal peptides as competitors for nNOS binding. Further details: expressed in transfected cells; host or cells: HEK293.
Assay [4] has as its target T1, nNOS. In words: nNOS catalytic activity. Type of assay: biochemical. Particulars: data not shown.
For assay [5], the system named is nNOS/PSD95 interaction. Put plainly: Coimmunoprecipitation of myc-PSD95 with HA-nNOS in transfected HEK293 cells. In kind it is cell-based. Particulars: cotransfection of full-length CAPON expression plasmid. An excerpt: FIG. 6. CAPON expression prevents the interaction of PSD95 and nNOS. HEK293 cells were transfected with various combinations of expression plasmids for HA-tagged nNOS (HA-NOS), myc-tagged PSD95, or CAPON. Following transfection, the lysates were immunoprecipitated with an anti-HA antibody and bound proteins were detected with the appropriate antibodies. Following cotransfection of HA-NOS and myc-PSD95, myc-PSD95 is detected in anti-HA immunoprecipitates. […] In the absence of HA-nNOS transfection, neither myc-PSD95 or CAPON is immunoprecipitated by anti-HA antibodies.
We wanted to determine if CAPON and PSD95 compete for binding to nNOS in intact cells. Accordingly, we transfected HEK-293 cells with various mixtures of expression plasmids containing cDNAs of hemagglutinin antigen (HA)-tagged nNOS, myc-tagged PSD95 and/or full-length CAPON. Following immunoprecipitation with antibodies to HA, we examined which proteins coprecipitated. In cells expressing HA-nNOS and myc-PSD95, antibodies to HA coprecipitate myc-PSD95 (FIG. 6). When various amounts of CAPON cDNA containing expression plasmids are also transfected, HA-immunoprecipitatescontain CAPON but substantially less PSD95.

The target in assay [6] is T2, nNOS construct comprising amino acids 163-245 (PIN-binding domain of nNOS), Gal4 BD fusion (rat).
T2 chain: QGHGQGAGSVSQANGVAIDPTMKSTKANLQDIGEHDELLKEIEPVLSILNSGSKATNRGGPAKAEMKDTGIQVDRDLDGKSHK
In words: yeast two-hybrid with truncations of nNOS.

The subject of assay [7] is nNOS/PSD93 interaction. In words: Competition for nNOS binding to immobilized GST-PSD93. On the procedure:
as §1
Since the nNOS PDZ domain is capable of both PDZ-PDZ interactions and PDZ-C-terminal peptide interactions we wondered whether CAPON and PSD95 can bind simultaneously to nNOS or whether their interactions with nNOS are mutually exclusive. To answer this question we incubated lysates of HEK-293 cells containing nNOS with various concentrations of a His6 -CAPON fusion protein, comprising the last 125 amino acids of CAPON, and then added these lysates to GST-PSD95 immobilized on glutathione agarose resin (FIG. 5A). After extensive washing of the resin, we assayed for nNOS bound to PSD95 by Western blot. […] Half maximal reduction of binding is evident between 5 and 50 nM His6 -CAPON (FIG. 5B). […] As controls, we examined the effects of 5 μM His6 -PIN or […] His6 -FK506 binding protein-12 kD (FKBP). […]

In assay [8] the test system is nNOS PDZ domain. In words: Binding of mutagenized His6-CAPON fusion proteins to immobilized GST-NOS (1-100). Conditions: His6-fusion of last 100 amino acids of CAPON, last four amino acids given. On the procedure:
His6 -fusion proteins of the last 100 amino acids of CAPON were generated and incubated with GST-NOS (1-100) immobilized on glutathione agarose.
Recently Cantley and associates (Songyang et al., 1997) identified consensus sequences for binding to several PDZ domains. Binding of PDZ ligands involves the C-terminus of proteins, with determinants of specificity lying within the eight or fewer C-terminal amino acids. A consistent requirement among all the PDZ domain ligands is a hydrophobic residue, such as valine or leucine, as the final amino acid.

The target of assay [9] is nNOS (purified nNOS standard; preparation and species not stated). Put plainly: peptide competition; format not described.

Here are results for twelve molecules from patent publication US6103872A, “CAPON: a protein associated with neuronal nitric oxide synthase” (The Johns Hopkins University, priority 1998, dated 2000).

For orientation: IC50 means the concentration that inhibits the measured activity by half.

Positions count from the first letter of the chain named.

Turning to “His6-CAPON fusion protein comprising the last 125 amino acids of CAPON”, the IC50 in [1] is 0.005 to 0.05 µM.
“His6 -FKBP: His6-tagged FK506 binding protein-12 kD, control protein [reference compound]”: in [2], the “competition for / block of nNOS-PSD95 interaction” value is on record as “Neither of these proteins compete” and the “block of nNOS/PSD95 interaction in vitro” value is reported as “do not disrupt”.
As for “peptides comprising the C-terminal nine residues of CAPON: short, presumably unfolded, peptides comprising the C-terminal nine residues of CAPON (DSLDDEIAV)”, in assay [3], the “binding to nNOS” value is reported as “bind nNOS weakly”.
Regarding “CAPON: Carboxyl-terminal PDZ ligand of nNOS, 503 amino acid rat cytoplasmic protein”, the “direct inhibition of nNOS catalytic activity” value in assay [4] was “does not inhibit”. In addition, the “amount of myc-PSD95 in anti-HA precipitates” value in assay [5] is on record as “substantially reduces”.
As to “16-residue peptides: 16-residue peptides of the CAPON C-terminus (LQRQELGDSLDDEIAV; UniProt O54960 488-503, looked up, fragment)”, in assay [3] (read-out: IC50 as competitor), the IC50 came to 10 µM.

B1: pAD-CAPON1 (Gal4 activation domain fused to the last 125 amino acids of CAPON) (other)
chain: SGALPVLCESTTPKPEDLHSPLLGAGLADFAHPVGSPLGRRDCLVKLECFRFLPAEDNQPMAQGEPLLGGLELIKFRESGIASEYESNTDESEERDSWSQEELPRLLNVLQRQELGDSLDDEIAV
With B1, the binding result in assay [6] was “no binding”.

B2: His6 -CAPON: His6-tagged fusion protein of the C-terminal 100 or 125 amino acids of CAPON (protein)
chain: B1 chain
Regarding B2, the “competition for nNOS binding to immobilized GST-PSD93” value in assay [7] is reported as “effective competitor”. In addition, the “reduction of nNOS binding to GST-PSD95” value in [2] (5 nM fusion protein) is “substantial reduction”. The “block of nNOS/PSD95 interaction in vitro” value in [2] was “specifically block”. For the same molecule, the “effective concentration range as competitor” value in assay [2] (see FIG. 5) is reported as “active in the nanomolar range”. Besides, the “binding to GST-NOS (1-100)” value in assay [8] is “binds”.
LQRQELGDSLDDEIAV [16-residue peptides of CAPON] yielded an IC50 in assay [9] of 10000 µM.

B3: DC20: His6-CAPON fusion protein with the C-terminal 20 amino acids deleted (protein)
chain: SGALPVLCESTTPKPEDLHSPLLGAGLADFAHPVGSPLGRRDCLVKLECFRFLPAEDNQPMAQGEPLLGGLELIKFRESGIASEYESNTDESEERDSWSQEELPR
On to B3, for which, in assay [2], the “competition for / block of nNOS-PSD95 interaction” value is recorded as “fails to block the interaction” and the “block of nNOS/PSD95 interaction in vitro” value was “abolishes its ability to serve as a competitor”.

B4: EIAA: His6-CAPON (last 100 amino acids), terminal valine mutated to alanine (protein)
chain: GLADFAHPVGSPLGRRDCLVKLECFRFLPAEDNQPMAQGEPLLGGLELIKFRESGIASEYESNTDESEERDSWSQEELPRLLNVLQRQELGDSLDDEIAA
Regarding B4, the “binding to GST-NOS (1-100)” value in assay [8] is listed as “prevents binding”.

B5: EAAV: His6-CAPON (last 100 amino acids), n-2 isoleucine mutated to alanine (protein)
chain: B4 chain with I98A, A100V
On to B5, for which the “binding to GST-NOS (1-100)” value in [8] is “tolerated”.

B6: ESAV: His6-CAPON (last 100 amino acids), n-2 isoleucine mutated to serine (protein)
chain: B4 chain with I98S, A100V
Take B6: the “binding to GST-NOS (1-100)” value in assay [8] is recorded as “tolerated”.
